For this experiment, the target named is mature KLK4 from recombinant pro-KLK4 expressed in Sf9 cells, activated with thermolysin (human) (UniProt Q9Y5K2). The experiment can be described thus: enzyme inhibition assay.

In general, Ki refers to the equilibrium dissociation constant of an inhibitor or competing ligand from its target.

Chain of UniProt Q9Y5K2 (Q9Y5K2 31-254): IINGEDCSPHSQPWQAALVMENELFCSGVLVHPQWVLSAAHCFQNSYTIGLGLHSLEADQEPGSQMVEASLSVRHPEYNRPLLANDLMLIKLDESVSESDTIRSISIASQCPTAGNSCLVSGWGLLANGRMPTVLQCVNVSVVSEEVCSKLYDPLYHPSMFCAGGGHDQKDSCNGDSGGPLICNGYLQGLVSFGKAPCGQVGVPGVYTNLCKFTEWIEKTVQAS

With “SFTI-FCQR(Asn14)[1,14], monocyclic (1,14-acyclic backbone, disulfide-bridged) (peptide)”, the inhibitory constant (Ki) is 3.48 nM.
To SFTI-FCQR(Asn14), bicyclic (peptide) belongs 0.04 nM.

The values are drawn from doi:10.1101/570390.
